T1: GvpA fragment A1-34 (Halobacterium salinarum, UniProt P08958 1-34)
T1 construct: GvpA of Halobacterium salinarum, alpha1 plus beta-sheet 1; vector described in earlier work; source: Hfx. volcanii WR340 transformant, split-GFP fusion in living cells
T1 chain (looked up): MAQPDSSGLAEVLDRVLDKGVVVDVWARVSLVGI

T2: GvpA fragment A1-43 (Halobacterium salinarum, UniProt P08958 1-43)
T2 construct: GvpA of Halobacterium salinarum, alpha1-beta1-beta2; vector described in earlier work; source: Hfx. volcanii WR340 transformant, split-GFP fusion in living cells
T2 chain (looked up): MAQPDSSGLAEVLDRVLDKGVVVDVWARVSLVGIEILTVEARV

T3: GvpA fragment A20-47 (Halobacterium salinarum, UniProt P08958 20-47)
T3 construct: GvpA of Halobacterium salinarum, the two beta-sheets beta1-beta2; vector described in earlier work; source: Hfx. volcanii WR340 transformant, split-GFP fusion in living cells
T3 chain (looked up): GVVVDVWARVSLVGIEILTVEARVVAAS

T4: GvpA fragment A44-76 (Halobacterium salinarum, UniProt P08958 44-76)
T4 construct: GvpA of Halobacterium salinarum, mainly helix alpha3; vector described in earlier work; source: Hfx. volcanii WR340 transformant, split-GFP fusion in living cells
T4 chain (looked up): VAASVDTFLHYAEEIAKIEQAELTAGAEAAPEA

T5: GvpA fused to NGFP or CGFP (Halobacterium salinarum, UniProt P08958 1-76)
T5 construct: the entire GvpA of the p-vac region of Halobacterium salinarum; gvpA reading frame; NGFP (mGFP2 up to aa 157) or CGFP (from aa 158) at the N- or C-terminus through a 14 aa (pJAS) or 16 aa (pWLfdx) linker; with GvpF and its variants CGFP stood at the C-terminus of GvpA (AC); also called NA; AN; source: Hfx. volcanii WR340 transformant, split-GFP fusion in living cells
T5 sequence (looked up): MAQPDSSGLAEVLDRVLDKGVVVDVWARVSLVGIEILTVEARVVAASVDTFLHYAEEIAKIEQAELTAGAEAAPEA

T6: GvpC C-terminal fragment Cterm (Halobacterium salinarum, UniProt P24574 329-382)
T6 construct: GvpC of Halobacterium salinarum, aa 329-382, the globular C-terminal domain with a zinc-finger motif; GFP fragment at the N- or C-terminus; source: Hfx. volcanii WR340 transformant, split-GFP fusion in living cells
T6 sequence (looked up): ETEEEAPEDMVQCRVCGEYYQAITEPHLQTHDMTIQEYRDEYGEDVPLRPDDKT

T7: GvpN fused to NGFP or CGFP (Halobacterium salinarum, UniProt Q9HI16 1-347)
T7 construct: GvpN of the p-vac region of Halobacterium salinarum; gvpN amplified from the p-vac region; GFP fragment at the N- or C-terminus, 14 or 16 aa linker; source: Hfx. volcanii WR340 transformant, split-GFP fusion in living cells
T7 sequence (looked up): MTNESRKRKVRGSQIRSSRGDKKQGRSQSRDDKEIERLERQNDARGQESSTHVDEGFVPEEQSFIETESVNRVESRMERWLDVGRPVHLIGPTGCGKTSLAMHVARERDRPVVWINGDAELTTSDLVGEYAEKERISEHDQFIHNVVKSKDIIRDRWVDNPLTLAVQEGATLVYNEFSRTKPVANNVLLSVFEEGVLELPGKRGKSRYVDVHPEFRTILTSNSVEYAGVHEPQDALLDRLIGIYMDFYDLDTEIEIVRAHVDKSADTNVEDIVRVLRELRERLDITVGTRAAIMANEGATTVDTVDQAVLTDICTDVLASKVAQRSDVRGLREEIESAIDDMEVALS

T8: GvpC fused to NGFP or CGFP (Halobacterium salinarum, UniProt P24574 1-382)
T8 construct: GvpC of the p-vac region of Halobacterium salinarum; gvpC amplified from the p-vac region; GFP fragment at the N- or C-terminus, 14 or 16 aa linker; source: Hfx. volcanii WR340 transformant, split-GFP fusion in living cells
T8 sequence (looked up): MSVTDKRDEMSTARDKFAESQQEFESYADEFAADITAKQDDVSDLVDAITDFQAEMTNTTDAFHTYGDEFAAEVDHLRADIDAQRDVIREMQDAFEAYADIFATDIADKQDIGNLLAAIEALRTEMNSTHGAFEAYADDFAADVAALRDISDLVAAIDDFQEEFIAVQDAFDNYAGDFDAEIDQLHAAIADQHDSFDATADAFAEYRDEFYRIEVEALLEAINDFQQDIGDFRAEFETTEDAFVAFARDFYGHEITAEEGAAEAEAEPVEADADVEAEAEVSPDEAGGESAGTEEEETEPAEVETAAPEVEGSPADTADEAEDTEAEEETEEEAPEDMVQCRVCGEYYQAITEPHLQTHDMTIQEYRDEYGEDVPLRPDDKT

B1: GvpA fragment A1-22 (domain or fragment, Halobacterium salinarum, UniProt P08958 1-22, looked up)
chain: MAQPDSSGLAEVLDRVLDKGVV
notes: GvpA of Halobacterium salinarum, the first 22 aa including alpha-helix 1; vector described in Winter et al., 2018 and Voelkner et al., 2020; source: Hfx. volcanii WR340 transformant, split-GFP fusion in living cells

Legend:
Test in all cases: split reporter (BiFC, NanoBiT); split-GFP (NGFP and CGFP of salt-stable mGFP2) in Hfx. volcanii transformants, 24 h 37 °C then 24 h 30 °C; relative fluorescence (rf) against the wild type; the highest of eight tag combinations is given
GvpA fragment A1-34 = target: T1, GvpA fragment A1-34; details: partners not purified
GvpA fragment A1-43 = target: T2, GvpA fragment A1-43; details: partners not purified
GvpA fragment A20-47 = target: T3, GvpA fragment A20-47; details: partners not purified
GvpA fragment A44-76 = target: T4, GvpA fragment A44-76; details: partners not purified
[1] = target: T5, GvpA fused to NGFP or CGFP; details: partners not purified
GvpA fragment A1-22 = target: B1; details: partners not purified
[2] = target: T6, GvpC C-terminal fragment Cterm; details: partners not purified
[3] = target: T7, GvpN fused to NGFP or CGFP; details: partners not purified
[4] = target: T8, GvpC fused to NGFP or CGFP; details: partners not purified
[5] = target: the molecule itself

| relative fluorescence (rf) (GvpA fragment A1-34) [LAU/mm^2] | relative fluorescence (rf) (GvpA fragment A1-43) [LAU/mm^2] | relative fluorescence (rf) (GvpA fragment A20-47) [LAU/mm^2] | relative fluorescence (rf) (GvpA fragment A44-76) [LAU/mm^2] | relative fluorescence (rf) [1] [LAU/mm^2] | relative fluorescence (rf) (GvpA fragment A1-22) [LAU/mm^2] | relative fluorescence (rf) [2] [LAU/mm^2] | relative fluorescence (rf) [3] [LAU/mm^2] | relative fluorescence (rf) [4] [LAU/mm^2] | Binder | relative fluorescence (rf) [5] [LAU/mm^2] |
| --- | --- | --- | --- | --- | --- | --- | --- | --- | --- | --- |
| ≤ 0.48 | ≤ 0.48 | ≤ 0.48 | ≤ 0.48 |  |  |  |  |  | B1 |  |
|  |  |  |  | < 2.5 | 3.57 | 10.1 |  |  | GvpC N-terminal fragment Nterm (domain or fragment, Halobacterium salinarum, UniProt P24574 10-130, looked up, GvpC of Halobacterium salinarum, amino acids 10-130, the first three alpha-helical repeats; GFP fragment at the N- or C-terminus; source: Hfx. volcanii WR340 transformant, split-GFP fusion in living cells) MSTARDKFAESQQEFESYADEFAADITAKQDDVSDLVDAITDFQAEMTNTTDAFHTYGDEFAAEVDHLRADIDAQRDVIREMQDAFEAYADIFATDIADKQDIGNLLAAIEALRTEMNSTH |  |
|  |  |  |  |  | 3 |  | 12.5 | < 5 | GvpO fused to NGFP or CGFP (natural protein, Halobacterium salinarum, UniProt O51968 1-119, looked up, GvpO of the p-vac region of Halobacterium salinarum; gvpO amplified from the p-vac region; GFP fragment at the N- or C-terminus, 14 or 16 aa linker; source: Hfx. volcanii WR340 transformant, split-GFP fusion in living cells) MADPANDRSEREEGGEDDETPPASDGNPSPSANSFTLSNAQTRAREAAQDLLEHQFEGMIKAESNDEGWRTVVEVVERNAVPDTQDIIGRYEITLDGTGDVTGYELLERYRRGDMKEEL | > 10 |

— publication PMC9372576, “Interaction of the gas vesicle proteins GvpA, GvpC, GvpN, and GvpO of Halobacterium salinarum” (Frontiers in Microbiology, 2022)
